Results as given in patent US20030119102A1.

Target: T1, rat Kv4.2 α-subunit (rat) (UniProt Q63881)
T1 sequence (looked up): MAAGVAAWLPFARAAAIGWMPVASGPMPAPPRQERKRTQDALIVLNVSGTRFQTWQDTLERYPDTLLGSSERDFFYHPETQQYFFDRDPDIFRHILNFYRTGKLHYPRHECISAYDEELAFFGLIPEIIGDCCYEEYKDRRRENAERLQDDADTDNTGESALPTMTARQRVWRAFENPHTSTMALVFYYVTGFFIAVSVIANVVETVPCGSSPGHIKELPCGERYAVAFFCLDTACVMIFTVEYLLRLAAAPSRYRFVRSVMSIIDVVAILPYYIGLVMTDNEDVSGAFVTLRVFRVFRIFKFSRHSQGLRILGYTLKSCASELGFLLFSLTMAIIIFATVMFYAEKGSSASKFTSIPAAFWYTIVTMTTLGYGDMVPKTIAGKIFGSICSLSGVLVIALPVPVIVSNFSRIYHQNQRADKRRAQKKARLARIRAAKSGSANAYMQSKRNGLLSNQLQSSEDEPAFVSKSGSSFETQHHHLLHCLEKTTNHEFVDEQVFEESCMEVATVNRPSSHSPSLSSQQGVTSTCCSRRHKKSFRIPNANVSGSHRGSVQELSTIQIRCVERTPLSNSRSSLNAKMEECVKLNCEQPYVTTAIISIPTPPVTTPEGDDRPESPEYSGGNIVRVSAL
Test: cell-based or functional assay

Substance: KChIP2ΔN2-67
- Inactivation time constant (ms, at 50 mV), CHO cells (rKv4.2 + vector: 28.2): 110 ms
- Peak Current (nA/cell at 50 mV), CHO cells, patch clamp (rKv4.2 + vector: 0.60): 5.8 nA/cell
- Peak Current Density (pA/pF at 50 mV), CHO cells (rKv4.2 + vector: 25.5): 203 pA/pF
- Recovery from Inactivation Time constant, CHO cells (rKv4.2 + vector: 272.2): 36.1 ms
